These results are taken from paper PMC13186709.

Where a chain is given by its changes, count along the chain named.

For series [1], the target named is T1, Egalitarian (Egl);Bicaudal D (BicD) (Drosophila melanogaster;Drosophila …, UniProt Q9W1K4;P16568 1-1004;1-782, |). The series is described as follows: MST; two experiments, different preps; MST: 1 nM Cy5-RNA in GF150 (25 mM HEPES pH 7.3, 150 mM KCl, 1 mM MgCl2, 0.1 mM Mg-ATP, 5 mM DTT, 10% glycerol) + 0.05% Tween-20, 15 min, room temperature; Egl-BicD conc. as 2:2 complex. Particulars: protein: recombinant;recombinant; tags: C-terminal TEV-ZZ (cleaved);; chain copies: 2;2; label: 5'-Cy5; straight hairpin.
T1 sequence (chain, as listed by the source |, chain 1 of 2): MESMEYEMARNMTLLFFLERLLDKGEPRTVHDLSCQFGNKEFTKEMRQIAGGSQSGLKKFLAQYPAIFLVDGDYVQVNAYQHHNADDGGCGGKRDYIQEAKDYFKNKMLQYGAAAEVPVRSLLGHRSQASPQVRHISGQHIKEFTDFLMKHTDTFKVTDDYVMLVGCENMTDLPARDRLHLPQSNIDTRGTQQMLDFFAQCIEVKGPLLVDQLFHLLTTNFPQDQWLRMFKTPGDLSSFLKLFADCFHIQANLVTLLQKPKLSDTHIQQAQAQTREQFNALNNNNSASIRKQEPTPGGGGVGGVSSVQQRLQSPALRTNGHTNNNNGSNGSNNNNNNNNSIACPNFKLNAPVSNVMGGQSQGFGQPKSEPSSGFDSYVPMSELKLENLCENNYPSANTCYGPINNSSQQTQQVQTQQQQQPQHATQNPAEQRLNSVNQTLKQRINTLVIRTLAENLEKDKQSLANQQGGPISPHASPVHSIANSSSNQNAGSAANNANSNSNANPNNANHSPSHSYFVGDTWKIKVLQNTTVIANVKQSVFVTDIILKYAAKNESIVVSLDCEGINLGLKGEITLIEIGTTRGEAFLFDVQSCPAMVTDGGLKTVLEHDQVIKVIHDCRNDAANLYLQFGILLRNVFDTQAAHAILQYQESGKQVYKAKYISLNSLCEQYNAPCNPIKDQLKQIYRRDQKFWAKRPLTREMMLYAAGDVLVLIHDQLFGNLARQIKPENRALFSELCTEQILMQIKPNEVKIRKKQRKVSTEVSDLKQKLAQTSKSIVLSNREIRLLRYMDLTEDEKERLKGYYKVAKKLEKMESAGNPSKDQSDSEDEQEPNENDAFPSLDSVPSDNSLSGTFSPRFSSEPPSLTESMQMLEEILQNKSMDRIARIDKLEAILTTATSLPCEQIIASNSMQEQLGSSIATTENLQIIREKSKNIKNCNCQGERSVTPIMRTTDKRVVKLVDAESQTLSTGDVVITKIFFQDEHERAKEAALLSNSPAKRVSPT
T1 sequence (P16568 whole entry, chain 2 of 2): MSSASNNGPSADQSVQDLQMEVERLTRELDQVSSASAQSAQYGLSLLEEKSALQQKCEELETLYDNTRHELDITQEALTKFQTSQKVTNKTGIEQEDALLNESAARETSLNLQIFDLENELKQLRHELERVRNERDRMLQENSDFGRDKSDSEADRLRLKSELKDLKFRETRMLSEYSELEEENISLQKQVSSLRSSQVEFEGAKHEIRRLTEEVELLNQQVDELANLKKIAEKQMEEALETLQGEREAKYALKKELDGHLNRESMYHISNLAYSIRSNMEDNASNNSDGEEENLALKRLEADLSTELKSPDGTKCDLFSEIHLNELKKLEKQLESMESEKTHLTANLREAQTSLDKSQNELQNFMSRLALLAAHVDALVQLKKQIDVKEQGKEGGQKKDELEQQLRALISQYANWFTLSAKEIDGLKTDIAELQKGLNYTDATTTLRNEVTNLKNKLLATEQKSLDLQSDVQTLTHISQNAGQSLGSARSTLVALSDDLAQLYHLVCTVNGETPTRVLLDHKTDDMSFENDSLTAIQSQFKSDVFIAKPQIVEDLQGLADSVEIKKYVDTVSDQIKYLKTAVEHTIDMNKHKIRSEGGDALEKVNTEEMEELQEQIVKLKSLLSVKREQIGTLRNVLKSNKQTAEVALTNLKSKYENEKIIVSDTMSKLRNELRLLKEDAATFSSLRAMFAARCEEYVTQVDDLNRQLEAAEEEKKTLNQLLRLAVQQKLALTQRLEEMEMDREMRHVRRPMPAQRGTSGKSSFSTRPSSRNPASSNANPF

Series [2] addresses T1, Egalitarian (Egl);Bicaudal D (BicD). Kind of series: MST; MST: 1 nM Cy5-RNA in GF150 (25 mM HEPES pH 7.3, 150 mM KCl, 1 mM MgCl2, 0.1 mM Mg-ATP, 5 mM DTT, 10% glycerol) + 0.05% Tween-20, 15 min, room temperature; Egl-BicD conc. as 2:2 complex. The conditions noted are these: protein: recombinant;recombinant, tags: C-terminal TEV-ZZ (cleaved);, chain copies: 2;2, label: 5'-Cy5.

Series [3] has the same target. Kind of series: MST; prep 4; MST: 1 nM Cy5-RNA in GF150 (25 mM HEPES pH 7.3, 150 mM KCl, 1 mM MgCl2, 0.1 mM Mg-ATP, 5 mM DTT, 10% glycerol) + 0.05% Tween-20, 15 min, room temperature; Egl-BicD conc. as 2:2 complex. The conditions noted are these: protein: recombinant;recombinant; tags: C-terminal TEV-ZZ (cleaved);; chain copies: 2;2; label: 5'-Cy5; hairpin.
Series [4] shares this target. The series is described as follows: single-molecule motility; with human dynein and pig dynactin; single RNA per motile complex; MST: 1 nM Cy5-RNA in GF150 (25 mM HEPES pH 7.3, 150 mM KCl, 1 mM MgCl2, 0.1 mM Mg-ATP, 5 mM DTT, 10% glycerol) + 0.05% Tween-20, 15 min, room temperature; Egl-BicD conc. as 2:2 complex. Particulars: protein: recombinant;recombinant; tags: C-terminal TEV-ZZ (cleaved);; chain copies: 2;2; label: Cy3- or Cy5-UTP; two hairpins.

B1: 2NUE RNA (structured_RNA)
RNA: AAGGGACAAGCGCAAGGUCAUUCGCAAGAGUGGCCUUGCGCUUGUCCC
Consider B1, for which the binding result in series [1] is reported as “no binding”.

B2: hSL2 (structured_RNA)
RNA: AACUUCGUUGGCUUAGUUUCCUGGCUUAUAUCCUGGAAACCCGUCGACGAGG
In the case of B2, in series [2] (hairpin with bulges), the Kd was found to be 603 ± 79 nM.

B3: hSL1∆b (structured_RNA)
RNA: UGCGCGUAGACAUUUCACAUCAUUCGCCGGGAUUGGCAAAUGUUGUGAAGUGUUGCAAACAU
For the molecule B3, the equilibrium dissociation constant (Kd) in series [2] (hairpin) worked out at 204 ± 36 nM.

B4: GLS (MST) (structured_RNA)
RNA: AAAGUAAUUUUCGUGCUCUCAACAAUUGUCGCCGUCACAGAUUGUUGUUCGAGCCGAAUCUUACU
On to B4, for which, in series [2] (hairpin with bulges), the Kd worked out at 39 ± 14 nM.

B5: TLS∆b (structured_RNA)
RNA: UUACACCACUUGAUUGUAUUUUUAAAUUAAUUCUUAAAAAUACAAUUAAGAUCACUCU
Take B5: the dissociation constant (Kd) in series [3] is 2800 ± 510 nM.

B6: TLS-2xGCED1 (structured_RNA)
RNA: UUACACCACUUGAGGGUAUUUUUAAAUUAAUUCUUAAAAACUACACCUUAAGAUCACUCU
On to B6, for which the dissociation constant Kd in series [2] (hairpin with 3'-strand bulges) was found to be 376 ± 154 nM.

B7: TLS-CGED1/ED2 (structured_RNA)
RNA: B6 RNA with G14C, G15U, U23C, A36G, C46A, C47G
Consider B7, for which the Kd in series [2] (hairpin with 3'-strand bulges) is 345 ± 34 nM.

B8: TLS-GCED2 (structured_RNA)
RNA: B6 RNA with G14U, G15U, U23G, A36C, C46A, C47A
Take B8: the Kd in series [2] (hairpin with 3'-strand bulges) was found to be 425 ± 140 nM.

B9: TLS-2xGCED1+GCED2 (structured_RNA)
RNA: B6 RNA with U23G, A36C
In the case of B9, the Kd in series [2] (hairpin with 3'-strand bulges) stood at 1510 ± 210 nM.

B10: TLS-AUED1/ED2 (structured_RNA)
RNA: B6 RNA with G14A, G15U, U23A, A36U, C46A, C47U
Regarding B10, the dissociation constant Kd in series [2] (hairpin with 3'-strand bulges) stood at 746 ± 91 nM.

B11: TLS-GCED1/ED2 (structured_RNA)
RNA: B6 RNA with G15U, U23G, A36C, C46A
As for B11, in series [2] (hairpin with 3'-strand bulges), the Kd stood at 4110 ± 1540 nM.

B12: bcdSLV (MST) (structured_RNA)
RNA: AAAAAUGUUUCUCUUGGGCGUAAUCUCAUACAAUGAUUACCCUUAAAGAUCGAACAUUU
In the case of B12, the dissociation constant (Kd) in series [2] (hairpin with bulges) came out at 231 ± 64 nM.

B13: TLS-KSE (structured_RNA)
RNA: GUCAAAGCUUACCUUGAUUGUAUUUUUAAAUUAAUUCUUAAAAACUACAAAUUAAGUUGCAAACAUGCGAAUCCUAAACUCGGUUCACAACUUCCCCAAUUGAACAUAUAGUGGAAUUAUUAUUAUCAAUGGGGAAUAUGCUAGC
Regarding B13, the binding result in series [4] is given as “binds”.

B14: KSE (structured_RNA)
RNA: AAACCCAAUUGAACAUAUAGUGGAAUUAUUAUUAUCAAUGGGGAAUAUUUAACCC
In the case of B14, in series [2] (hairpin), the Kd amounted to 507 ± 93 nM.
